In general, Kd refers to the equilibrium constant for the complex coming apart. A lower Kd goes with higher affinity.

Where “and” joins values, the source holds several entries; their conditions need not be identical. Equal values may be shown once.

The test concerns the target SARS-CoV-2 main protease (M^pro), pGEX4T-1 construct, GST removed by thrombin (SARS-CoV-2, UniProt P0DTD1). Put plainly: BLI. Background: In BLI a coated tip is dipped into the sample, and binding shifts an interference pattern.

B1: NB2E3 (VHH)
VHH: QVQLQESGGGSVQAGGSLRLSCAVSGFIATSCALGWFRQAPGKEREGIATITTDGTTYYVDSVKGRFTISQDNAKNTVALQMNSLKPEDTAMYYCKLCCSGQYCAWGQGTQVTVSS
Regarding B1, the affinity, expressed as Kd, was 2.7 nM.

B2: NB1D10 (VHH)
VHH: QVQLQESGGGSVQAGGSLRLSCAVSGYSYCNYDLGWFRQAPGKEREGIATIDSDGNTYYVDSVKGRFTISQDNAKNTVALQMNSLKPEDTAMYYCKVGSIASSVPEVSCPPSAPFGYWGQGTQVTVSS
B2: the Kd was 0.43 nM and 0.431 nM.

The values above are taken from paper PMC9169858 (2022).
